According to paper doi:10.64898/2025.12.08.692957:
pKd: −log10 of the molar value.

Tests used:
[1] = target: Hcp (purified) (Acinetobacter baylyi); experiment: mass photometry
[2] = target: Hcp (purified) (Acinetobacter baylyi); experiment: flow-induced dispersion analysis
[3] = target: TagF, DyLight 488 labelled (Acinetobacter baylyi); experiment: flow-induced dispersion analysis

## Hcp (purified) (natural protein)
[1]
  percent of Hcp present as hexameric complex: > 93%
  stoichiometry N: 6
[2]
  stoichiometry N: 6
[3]
  pKd: 4.52
